Reference: patent US8796201B2 (The Board of Trustees of the Leland Stanford Junior …, priority 2002, dated 2014)

Key:
[1] = test system: PQPQLPYPQPQLP and LQLQPFPQPQLPYPQPQLPYPQPQLPYPQPQPF; test: Competitive proteolysis of 13-mer and 33-mer by each PEP; type: biochemical, wheat; conditions: 50 μM PQPQLPYPQPQLP, 10 μM 33-mer, 0.1 μM PEP
Protocol: FIGS. 12A-12C. […] 10 μM of the longer peptide and 50 μM of the shorter peptide were co-incubated with 0.1 μM of (A) FM PEP; (B) MX PEP; (C) SC PEP.
To examine the chain length specificity of individual PEPs, we performed competitive reactions containing both gluten-derived peptides, subjected the reaction mixture to RP-HPLC, and monitored the disappearance of each substrate was monitored as a function of time.

[2] = test system: LQLQPFPQPQLPYPQPQLPYPQPQLPYPQPQPF (33-mer); test: Hydrolysis of the 33-mer gliadin peptide by PEPs, HPLC; type: biochemical, wheat; conditions: for rate of substrate (33-mer+32-mer) disappearance: 10 μM substrate; for initial hydrolytic products of the 33-mer: LC/MS/MS
Protocol: FIGS. 11A-11C. Hydrolysis of (SEQ ID NO:12) […] by FM PEP, MX PEP and SC PEP. (A) Time dependence of hydrolysis in the presence of 10 μM substrate and 0.1 μM enzyme. […] (B) Initial cleavage fragments observed due to hydrolysis by FM PEP (t=1 min) and MX PEP (t=5 min). (C) Summary of initial cleavage fragments from FM PEP and MX PEP catalyzed hydrolysis of the 33-mer substrate.
Substrate Specificity. In addition to the reference substrates above, enzyme specificity was also evaluated using two immunogenic peptides derived from the sequence of γ-gliadin proteins in gluten. Both peptides were synthesized using solid-phase peptide synthesis. The peptide (SEQ ID NO:4) […] contains the immunodominant γII-epitope, and is resistant to proteolysis by pepsin or any pancreatic enzyme. PEP specificity toward this substrate was assessed in a competitive assay in which 100 μM (SEQ ID NO:4) […] and 100 μM Suc-Ala-Pro-pNA were mixed and reacted with 0.02 μM PEP at 25° C. The initial velocity of Suc-Ala-Pro-pNA cleavage was measured spectrophotometrically, whereas the initial velocity of (SEQ ID NO:4) […] hydrolysis was determined via HPLC. The apparent specificity, kcat/KM, for the hydrolysis of (SEQ ID NO:4) […] could be determined based on the known kcat/KM of the enzyme for Suc-Ala-Pro-pNA and the observed reaction rates of the two substrates. […] Proteolysis reactions were performed at 37° C. in PBS buffer with 5-100 μM peptide and 0.1 μM PEP for time periods of 1 min-4 hrs.
The decrease in substrate concentration as well as concomitant intermediate and product build-up were monitored with HPLC analysis. RP-HPLC was performed on a system consisting of Beckman or Rainin Dynamax SD-200, a Varian 340 UV detector set at 215 nm and 280 nm. Solvent A was H2O with 0.1% TFA and solvent B was acetonitrile with 0.1% TFA; gradient used: 0-5% B in 0-15 min, 5-30% B in 15-30′, 30-100% B in 30-35 min, 100% B for 5′; flow 1 ml/min; separation was performed on a 4.6×150 mm reverse phase C-18 column (Vydac, Hesperia, Calif., USA). Samples were centrifuged for 10 min at 13,400 g, prior to injection of 10-100 μl. […] Thus, multiple peptides accumulate during the course of the reaction, some of which are secondary PEP substrates in themselves.
Chain Length Tolerance and Selectivity. […] Thus, the SC PEP appears to have a severe chain length restriction for long peptide substrates.

[3] = Enzyme activity vs. pH (kcat titration); type: biochemical; conditions: for active site pKa: 100-4000 μM succinyl-Ala-Pro-pNA
Protocol: FIG. 8. Effect of pH on the turnover numbers (kcat) of FM PEP, MX PEP and SC PEP.
Activity Assays. Post-proline cleavage activity was measured using Z-Gly-Pro-p-nitroanilide and Succinyl-Ala-Pro-p-nitroanilide (Bachem, CA). Z-Gly-Pro-pNA was dissolved in a PBS:water:dioxane (8:1.2:0.8) assay mixture. The concentration of Z-Gly-Pro-pNA was varied from 100-600 μM. Although the substrate Z-Gly-Pro-pNA was effective in detecting enzyme activity, its insolubility at higher concentrations precluded kinetic measurements under substrate-saturated conditions. In contrast, Succinyl-Ala-Pro-pNA, had the advantage of high water solubility at all pH values tested, and was therefore a preferred substrate for kinetic studies. […] Reaction mixtures ([…] consisted of 30 μl of 10× pH buffer, final concentration of 0.01 μM enzyme, and Suc-Ala-Pro-pNA to final concentrations between 100 μM to 4 mM.
Enzyme Activity vs. pH. The luminal environment of the duodenum is approximately at pH 6. Therefore, a therapeutically useful PEP must retain high specific activity at that pH. The steady state turnover rate, kcat, of each PEP was titrated in various pH conditions using 100-4000 μM succinyl-Ala-Pro-pNA, shown in FIG. 8. […] Such conformational changes have been implicated in the catalytic cycle of the structurally characterized porcine brain PEP.

33-mer gliadin peptide = test: In vivo endopeptidase activity: co-perfusion of 33-mer and PEP in rat jejunum
Protocol: FIG. 7. Breakdown and detoxification of 33-mer gliadin peptide with PEP.
FIG. 14. (SEQ ID NO:12) Proteolysis of […] (5 μM) co-perfused with individual PEP's (0.1 μM) in the small intestinal lumen of an anesthetized rat. Each enzyme-substrate mixture was introduced via a catheter into a 15-20 cm segment of the upper jejunum. Samples were collected at the other end of the segment, and analyzed by UV-HPLC (215 nm). The control without any PEP is shown in the top trace.
In accordance with the methods of the invention, a prolyl endopeptidase can catalyze breakdown of this peptide, thereby diminishing its toxic effects. […] The ability of this PEP to clear the 33-mer gliadin peptide was evaluated via in vitro and in vivo experiments.
In Vivo Endopeptidase Activity. An adult (female or male) rat was anesthetized and maintained at 36-37° C. during the entire surgical procedure. The peritoneal cavity was opened, and a small incision was made at the beginning and the end of a 15-20 cm jejunum segment. Polyethylene catheters were inserted and secured into the two ends. The input catheter was connected with a pump-driven syringe filled with a solution. […] The collected digestive products were analyzed by HPLC on a C18 column.
In Vivo Hydrolysis. […] In this live animal model, the impact of concerted action of the perfused (luminal) PEP and the brush border (surface) peptidases is assessed.

Row | Molecule | chain length selectivity, 13-mer vs 33-mer [1] | rate of substrate (33-mer+32-mer) disappearance ([2]; 0.1 μM enzyme) | initial hydrolytic products of the 33-mer [2] | active site pKa [3] | detoxification (clearance) of the 33-mer gliadin peptide (33-mer gliadin peptide; rat BBM and co-perfusion in intact rat intestines) | time to hydrolyze 10 μM of the 33-mer ([2]; 0.1 μM enzyme) | faster action on the 33-mer than the MX PEP ([2]; based on initial rates) | faster action on the 33-mer than the SC PEP ([2]; based on initial rates) | breakdown of the 33-mer co-perfused in rat jejunum (33-mer gliadin peptide; 5 μM 33-mer, 0.1 μM PEP, 15-20 cm segment) | pH optimum ([3]; as stated in the description, no method given)
1 | MX PEP: novel recombinant prolyl endopeptidase from Myxococcus xanthus (Genbank AF127082, SEQ ID NO:47) (protein, listed as Myxococcus xanthus) MSYPATRAEQVVDTLHGVQVADPYRWLEDEKAPEVQTWMTAQNAHAREALAKFPGREALAARFKELFYTDSVSTPSRRNGRFFYVRTHKDKEKAILYWRQGESGQEKVLLDPNGWSKDGTVSLGTWAVSWDGKKVAFAQKPNAADEAVLHVIDVDSGEWSKVDVIEGGKYATPKWTPDSKGFYYEWLPTDPSIKVDERPGYTTIRYHTLGTEPSKDTVVHERTGDPTTFLQSDLSRDGKYLFVYILRGWSENDVYWKRPGEKDFRLLVKGVGAKYEVHAWKDRFYVLTDEGAPRQRVFEVDPAKPARASWKEIVPEDSSASLLSVSIVGGHLSLEYLKDATSEVRVATLKGKPVRTVQLPGVGAASNLMGLEDLDDAYYVFTSFTTPRQIYKTSVSTGKSELWAKVDVPMNPEQYQVEQVFYASKDGTKVPMFVVHRKDLKRDGNAPTLLYGYGGFNVNMEANFRSSILPWLDAGGVYAVANLRGGGEYGKAWHDAGRLDKKQNVFDDFHAAAEYLVQQKYTQPKRLAIYGGSNGGLLVGAAMTQRPELYGAVVCAVPLLDMVRYHLFGSGRTWIPEYGTAEKPEDFKTLHAYSPYHHVRPDVRYPALLMMAADHDDRVDPMHARKFVAAVQNSPGNPATALLRIEANAGHGGADQVAKAIESSVDLYSFLFQVLDVQGAQGGVAAQGR | clear preference for the 13-mer peptide | 0.43 µM/min | fragments mostly of 4-5 residues | ~6 | – | – | – | – | – | –
2 | PEP: prolyl endopeptidase; Examples 1-2: from Flavobacterium meningosepticum (US Biological); Example 11: source not stated (protein, UniProt P27028 21-705, looked up) Prolyl endopeptidase: QNSNVLKYPETKKVSHTDTYFGTQVSDPYRWLEDDRAEDTKAWVQQEVKFTQDYLAQIPFRDQLKKQLMDIWNYEKISAPFKKGKYTYFSKNDGLQAQSVLYRKDAAGKTEVFLDPNKFSEKGTTSLASVSFNKKGTLVAYSISEGGSDWNKIIILDAETKKQLDETLLDVKFSGISWLGDEGFFYSSYDKPKEGSVLSGMTDKHKVYFHKLGTKQSQDELIIGGDKFPRRYIGAYVTDDQRYLVVSAANATNGNELYIKDLKNKTDFIPIITGFDSNVNVADTDGDTLYLFTDKDAPNKRLVKTTIQNPKAETWKDVIAETSEPLEINTGGGYFFATYMKDAIDQVKQYDKNGKLVRAIKLPGSGNASGFGGEKTEKDLYYSFTNYITPPTIFKYNVTTGNSEVYQKPKVKFNPENYVSEQVFYTSSDGTKIPMMISYKKGLKKDGKNPTILYSYGGFNISLQPAFSVVNAIWMENGGIYAVPNIRGGGEYGKKWHDAGTKMQKKNVFNDFIAAGEYLQKNGYTSKEYMALSGRSNGGLLVGATMTMRPDLAKVAFPGVGVLDMLRYNKFTAGAGWAYDYGTAEDSKEMFEYLKSYSPVHNVKAGTCYPSTMVITSDHDDRVVPAHSFKFGSELQAKQSCKNPILIRIETNAGHGAGRSTEQVVAENADLLSFALYEMGIKSLK | – | – | – | – | this detoxification was demonstrated | – | – | – | – | –
3 | FM PEP: recombinant prolyl endopeptidase from Flavobacterium meningosepticum (Genbank D10980) (protein) QNSNVLKYPETKKVSHTDTYFGTQVSDPYRWLEDDRAEDTKAWVQQEVKFTQDYLAQIPFRDQLKKQLMDIWNYEKISAPFKKGKYTYFSKNDGLQAQSVLYRKDAAGKTEVFLDPNKFSEKGTTSLASVSFNKKGTLVAYSISEGGSDWNKIIILDAETKKQLDETLLDVKFSGISWLGDEGFFYSSYDKPKEGSVLSGMTDKHKVYFHKLGTKQSQDELIIGGDKFPRRYIGAYVTDDQRYLVVSAANATNGNELYIKDLKNKTDFIPIITGFDSNVNVADTDGDTLYLFTDKDAPNKRLVKTTIQNPKAETWKDVIAETSEPLEINTGGGYFFATYMKDAIDQVKQYDKNGKLVRAIKLPGSGNASGFGGEKTEKDLYYSFTNYITPPTIFKYNVTTGNSEVYQKPKVKFNPENYVSEQVFYTSSDGTKIPMMISYKKGLKKDGKNPTILYSYGGFNISLQPAFSVVNAIWMENGGIYAVPNIRGGGEYGKKWHDAGTKMQKKNVFNDFIAAGEYLQKNGYTSKEYMALSGRSNGGLLVGATMTMRPDLAKVAFPGVGVLDMLRYNKFTAGAGWAYDYGTAEDSKEMFEYLKSYSPVHNVKAGTCYPSTMVITSDHDDRVVPAHSFKFGSELQAKQSCKNPILIRIETNAGHGAGRSTEQVVAENADLLSFALYEMGIKSLK | comparable selectivity for both peptides | 2.3 µM/min | yielded longer intermediates | ~6 | – | 2 to 3 min | 5 fold | > 20 fold | promoted more complete breakdown of the 33-mer than both the MX and the SC PEP | ~7
